Experimental data taken from US20210102174A1 (TAIPEI VETERANS GENERAL HOSPITAL, published 2021).

B1: Nanog (endogenous, mouse embryonic stem cells) (other, UniProt Q80Z64 1-305, looked up)
chain: MSVGLPGPHSLPSSEEASNSGNASSMPAVFHPENYSCLQGSATEMLCTEAASPRPSSEDLPLQGSPDSSTSPKQKLSSPEADKGPEEEENKVLARKQKMRTVFSQAQLCALKDRFQKQKYLSLQQMQELSSILNLSYKQVKTWFQNQRMKCKRWQKNQWLKTSNGLIQKGSAPVEYPSIHCSYPQGYLVNASGSLSMWGSQTWTNPTWSSQTWTNPTWNNQTWTNPTWSSQAWTAQSWNGQPWNAAPLHNFGEDFLQPYVQLQQNFSASDLEVNLEATRESHAHFSTPQALELFLNYSVTPPGEI

Key:
[1] = biological target: Sox2 (endogenous, mouse embryonic stem cells) (mouse, UniProt P48432 1-319); assay: co-IP of Flag-tagged Ash2l constructs from nuclear extracts, Western blot
Chain of Sox2 (endogenous, mouse embryonic stem cells) (P48432 whole entry): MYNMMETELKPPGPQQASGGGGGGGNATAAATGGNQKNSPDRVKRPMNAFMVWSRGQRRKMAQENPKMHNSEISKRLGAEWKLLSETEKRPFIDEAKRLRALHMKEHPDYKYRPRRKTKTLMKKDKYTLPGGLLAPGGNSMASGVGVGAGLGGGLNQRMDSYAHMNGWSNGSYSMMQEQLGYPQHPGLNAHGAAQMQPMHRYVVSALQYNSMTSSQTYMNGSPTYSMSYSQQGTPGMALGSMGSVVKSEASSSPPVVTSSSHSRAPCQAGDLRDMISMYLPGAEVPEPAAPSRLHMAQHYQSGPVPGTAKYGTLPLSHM
Method: (§1) For samples from gel filtration, we used Centricon (Millipore) to concentrate and desalt the fraction of elute. Cleared sample solution was obtained by centrifugation at 12 000 rpm for 30 min at 4° C., and 0.5-1.5 mg of the sample was used for immunoprecipitations. For identify interacting complex of Ash2l protein, sample was added into primary antibody for 2 h at […] followed by 2 h of further incubation with protein A/G-Sepharose beads. After washing three times with the lysis buffer, immunoprecipitated proteins were eluted from the beads by boiling for 5 min in SDS-PAGE sample buffer and analyzed by immunoblotting.
(§2) To identify the domain(s) of Ash2l responsible for this protein interaction, we constructed expression plasmids for Flag-tagged truncated Ash2l (Ash2l-N-terminus: 1-172, the PHD domain; and Ash2l-C-terminus: 387-623, the SPRY domain) and full-length Ash2l (Ash2l-full length: 1-623; FIG. 2D) for various experiments. First, we overexpressed truncated and full-length Ash2l proteins in HEK293T cells, and subjected the nuclear extracts to immunoprecipitation (FIG. 2E). Rbbp5 associated with full-length Ash2l and Ash2l-C, which is consistent with previous findings (26). Remarkably, Oct4, Sox2, and Nanog associated with full-length Ash2l and Ash2l-N terminus, but not Ash2l-C terminus (FIG. 2E). To further assess the direct protein-protein interaction, Ash2l-N, Ash2l-C, and full-length Ash2l recombinant proteins were purified from bacteria (FIG. 2G) and independently incubated with various recombinant proteins, including Oct4, Sox2 and Nanog, and the p300 (Taz domain) protein. As shown in the in vitro pull-down assays with further analysis using Western blot or Coomassie staining (FIG. 2F and 2G), Ash2l directly interacted with the master stemness factors, Oct4, Sox2, and Nanog through its N terminus (1-172) (FIG. 2F and 2G). We then used the ZDOCK software to simulate the molecular docking between Ash2l and Oct4 and further predicted that several residues at the N terminus of Ash2l, including K117, W118, E180, K190, N217, and K220, may be crucial for the recognition and interaction with Oct4 (FIG. 2H). To determine which residue(s) of Ash2l was important for its interaction with Oct4, we used immunoprecipitation to assess the binding abilities of different Flag-tagged Ash2l mutants (K117A, W118A, E180A, K190A, N217A, and K220A) to Myc-tagged Oct4.

[2] = biological target: Oct4 (endogenous, mouse embryonic stem cells) (mouse, UniProt P20263 1-352); assay: as above
Chain of Oct4 (endogenous, mouse embryonic stem cells) (P20263 whole entry): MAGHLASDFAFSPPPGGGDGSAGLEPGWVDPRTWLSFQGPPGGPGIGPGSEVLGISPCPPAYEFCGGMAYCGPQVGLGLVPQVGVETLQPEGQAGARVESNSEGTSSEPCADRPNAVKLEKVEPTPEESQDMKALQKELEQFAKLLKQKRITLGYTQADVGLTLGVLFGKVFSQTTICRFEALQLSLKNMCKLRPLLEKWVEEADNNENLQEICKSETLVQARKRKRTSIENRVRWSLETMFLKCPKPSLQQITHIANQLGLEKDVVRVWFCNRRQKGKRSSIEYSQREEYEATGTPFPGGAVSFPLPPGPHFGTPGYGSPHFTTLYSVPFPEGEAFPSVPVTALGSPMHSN
Method: as §1, §2

[3] = biological target: B1; assay: as above
Method: as §1, §2

[4] = biological target: T1, Ash2l (endogenous, in nuclear extracts of mouse embryonic stem cells) (mouse, UniProt Q91X20 1-623, limits assumed); assay: co-IP from gel filtration fraction 1 of ESC nuclear extract; also fraction 3 after Wdr5 knockdown (Ash2l still interacted with OSN)
T1 construct: Endogenous protein in gel filtration fractions of ESC nuclear extracts or on ESC chromatin
Method: as §1
Nuclear extraction was performed according to the manual instruction. Biochemical fractionation of ESC extracts into seven fractions was performed as described previously (Ang et al., 2011). Briefly, ESCs were lysed with lysis buffer and applied onto […] column (HiPrep 16/60 Sephycryl). […]
To further understand the role of Ash2l in stemness regulation, we used gel filtration analysis (FIG. 2A) followed by Western blot to investigate the profiles of molecular complexes in the nuclei of ESCs (FIG. 2B). […] Subsequently, we assessed these OSN-enriched (fraction 1), OSN/WRD-enriched (fraction 3), and WRD-enriched fractions (fraction 4) in an immunoprecipitation assay. […]

[5] = biological target: T2, Flag-tagged full-length Ash2l (Ash2l-Full length: 1-623) (UniProt Q91X20 1-623); assay: co-IP of Flag-tagged Ash2l constructs from nuclear extracts, Western blot
T2 construct: range 1-623; Expressed in cells for co-IP, ChIP and reporter assays, or purified from E. coli BL21 for in vitro pull-downs; also called Flag-Ash2l^WT; Flag-Ash2l-F; not shown: 3xFlag tag of the p3xFlag plasmid
Method: as §1, §2

binding result [1] | binding result [2] | binding result [3] | binding result [4] | binding result [5] | Binder
binds | binds | binds | – | – | Flag-tagged Ash2l-N terminus (1-172, the PHD domain) (other, UniProt Q91X20 1-172, looked up, range 1-172; also called Flag-Ash2l-N; not shown: 3xFlag tag of the p3xFlag plasmid) MAAAGAGPGPGVSAGPGPGAAASATTAEDRETEPVAAGAGEGPSAAPGAEPSSGEAESGDANLVDVSGLETESSNGKDTLEGTGDTSEVMDTQAGSVDEENGRQLGEVELQCGICTKWFTADTFGIDTSSCLPFMTNYSFHCNVCHHSGNTYFLRKQANLKEMCLSALANLT
– | – | – | binds | binds | B1
